Test results as given in publication PMC5522039, “Non-invasive assessment of murine PD-L1 levels in syngeneic tumor models by nuclear imaging with nanobody tracers” (Oncotarget, 2017).

Assays:
[1] = target: T1, Mouse PD-L1 Fc-fusion protein (R&D Systems, 1019-B7) (Mus musculus, UniProt Q9EP73); assay: SPR; Biacore T200, 25°C, HBS (0.01 M HEPES pH 7.4, 0.15 M NaCl, 3 mM EDTA, 0.005% Tween 20); mouse or human PD-L1 Fc-fusion protein amine-coupled on a CM5 chip (650-900 RU); Nb in crude periplasmic extract as analyte, its concentration estimated by CFCA; 9 dilutions, 120 s association, 160 s dissociation; 1-to-1 fit; affinity estimations; details: one partner purified
T1 construct: programmed death-ligand 1 (PD-L1, B7-H1, CD274), mouse; also called moPD-L1; B7-H1; source: bought: R&D Systems (1019-B7)

[2] = target: T2, Human PD-L1 Fc-fusion protein (R&D Systems, 156-B7) (Homo sapiens, UniProt Q9NZQ7); assay: as above; details: one partner purified
T2 construct: programmed death-ligand 1 (PD-L1, B7-H1, CD274), human; also called huPD-L1; B7-H1; source: bought: R&D Systems (156-B7)
T2 sequence (Q9NZQ7 19-238): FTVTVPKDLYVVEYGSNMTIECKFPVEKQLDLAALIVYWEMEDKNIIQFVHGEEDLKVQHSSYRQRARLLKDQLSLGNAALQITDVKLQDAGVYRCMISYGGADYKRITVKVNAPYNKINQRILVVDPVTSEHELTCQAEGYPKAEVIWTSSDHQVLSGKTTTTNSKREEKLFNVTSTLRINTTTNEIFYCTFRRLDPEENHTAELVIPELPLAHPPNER

T1 sequence (Q9EP73 19-239): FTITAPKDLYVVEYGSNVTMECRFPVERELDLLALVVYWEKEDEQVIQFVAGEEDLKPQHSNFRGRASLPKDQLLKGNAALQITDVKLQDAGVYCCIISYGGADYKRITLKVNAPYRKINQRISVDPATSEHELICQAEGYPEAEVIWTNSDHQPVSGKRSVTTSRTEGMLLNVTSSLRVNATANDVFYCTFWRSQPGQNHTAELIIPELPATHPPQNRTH

Binder | Kd [1] [nM] | Kd [2] [nM]
Nb C15 (HA-tagged, in periplasmic extract) (VHH, source: E. coli WK6 (pHEN4), crude periplasmic extract) VHH: QVQLQESGGGLVQTGGSLRVSCAVSGSTVSRSTMAWWRQTPGNQRELVALVDSGGKSNYVDSVKGRFTISTDNAKNTMYLQMNSLKPEDTAVYYCRILSVQGIWYWGQGTQVTVSS | 6.5 | 335
Nb L1 (HA-tagged, in periplasmic extract) (VHH, source: E. coli WK6 (pHEN4), crude periplasmic extract) VHH: VQAGGSLRLSCAASGYRYCRYDMSWYRQAPGKEREFVSAIDSYGSPTYADTVLGRFTISRDNAKNTVYLQMNSLKAEDTAMYYCKIDSTGWSSRCGKTYWGQGTQVTVSS | 15 | 34
Nb G5 (HA-tagged, in periplasmic extract) (VHH, source: E. coli WK6 (pHEN4), crude periplasmic extract) VHH: QVQLQESGGGLVQPGGSLRLSCAASGSFFRTYIVSWYRQAPGKRREAVAVMSNSGNTNYADSVKGRFTISRDNAVNTVYLQMNSLKPEDTAVYYCNLLKVTVPPANYWGQGTQVTVSS | 3.9 | 16
Nb G7 (HA-tagged, in periplasmic extract) (VHH, source: E. coli WK6 (pHEN4), crude periplasmic extract) VHH: QVQLQESGGGLVQSGGSLRLSCAASGSFFRTYIVSWYRQAPGKRREAVAVMSNSGNTNYADSVKGRFTISRDNAVNTVYLQMNSLKPEDTAVYYCNLLKVTVPPANYWGQGTQVTVSS | 3.4 | 129
Nb M1 (HA-tagged, in periplasmic extract) (VHH, source: E. coli WK6 (pHEN4), crude periplasmic extract) VHH: VQAGDSLRLACTLFKYPTNNLCLAWFRQAPGKEREGVAALNTDGVGTYYAKSVEGRFTISQDKSKNEGYLQMDNLKPEDTAIYYCAADPTSRCNNYVQGRWWHEIGSRVWDWGQGTQVTVSS | 13 | 17
Nb E1 (HA-tagged, in periplasmic extract) (VHH, source: E. coli WK6 (pHEN4), crude periplasmic extract) VHH: QVQLQESGGGLVQAGGSLRLSCATSGSIFSIISMGWYRQAPGKQRELVALVFRGGSTVYADSVKGRFTISGDIAKNTVYLQMDSLKPEDTAVYYCNVKSIGTAQYWGQGTQVTVSS | 2.3 | 12
Nb E6 (HA-tagged, in periplasmic extract) (VHH, source: E. coli WK6 (pHEN4), crude periplasmic extract) VHH: QVQLQESGGGLVQAGGSLRLSCATSGSIFSIISMGWYRQAPGKQRELVALVFRGGSTVYADSVKGRFTISGDIAKSTVYLQMDSLKPEDTAVYYCNAKPIGTAQYWGQGTQVTVSS | 6.9 | 217
Nb C6 (HA-tagged, in periplasmic extract) (VHH, source: E. coli WK6 (pHEN4), crude periplasmic extract) VHH: QVQLQESGGGLVQAGDSLRLSCAASGSTVSSSMMAWWRQTPGNQRELVALVASGNNTNYVDSVKGRFTVSRDNAKNTMYLQMNSLKPEDTAVYYCRILSVNGIWYWGQGTQVTVSS | 0.289 | 94
Nb C11 (HA-tagged, in periplasmic extract) (VHH, source: E. coli WK6 (pHEN4), crude periplasmic extract) VHH: QVQLQESGGGLVQTGGSLRLSCAASGSTVSSSTMAWWRQTPGNQRELVALVASGGNTNYVDSVKGRFTVSRDNAKNTMYLQMNSLKPEDTAVYYCRILSVNGIWYWGQGTQVTVSS | 12 | 246
Nb C12 (HA-tagged, in periplasmic extract) (VHH, source: E. coli WK6 (pHEN4), crude periplasmic extract) VHH: QVQLQESGGGLVQTGGSLRLSCAASGSTVSSSTMAWWRQTPGNQRELVALVASGGNTNYVDSVKGRFTVSRDNAKNTMYLQMNSLKAEDTAVYYCRILSVNGIWYWGQGTQVTVSS | 11.4 | 181
Nb C9 (HA-tagged, in periplasmic extract) (VHH, source: E. coli WK6 (pHEN4), crude periplasmic extract) VHH: QVQLQESGGGLVQAGESLRLSCAGSGSTVSSSTMAWWRQTPGNQRELVALVASGGNTNYVDSVKGRFTVSRDNAKNTMYLQMNSLKPEDTAVYYCRILSMNGIWYWGQGTQVTVSS | 2.2 | 44
Nb C10 (HA-tagged, in periplasmic extract) (VHH, source: E. coli WK6 (pHEN4), crude periplasmic extract) VHH: QVQLQESGGGLVQTGGSLRLSCAASGSTVSSSTMAWWRQTPGNQRELVALVASGGNTNYVDSVKGRFTVSRDNAKNTMYLQMNSLKPEDTAVYYCRILSMNGIWYWGQGTQVTVSS | 6.7 | 141
Nb C1 (HA-tagged, in periplasmic extract) (VHH, source: E. coli WK6 (pHEN4), crude periplasmic extract) VHH: QVQLQESGGGLVQTGGSLRLSCAASGSTVSSSMMAWWRQTPGNQRELVALVARGNNTNYVDSVKGRFTVSRDNAKNTMYLQMNSLKPEDTAVYYCRILSVNGIWYWGQGTQVTVSS | 0.327 | 143
Nb G2 (HA-tagged, in periplasmic extract) (VHH, source: E. coli WK6 (pHEN4), crude periplasmic extract) VHH: QVQLQESGGGLVQPGGSLRLSCVASGSISSFNFMGWYRQAPGKQRELVALSTNSGVTNVAGSVKGRFTISRDNAKTTVYLQMNSLKPEDTAVYYCRVGAMGNLYWGQGTQVTVSS | 5.5 | 158

More lines, now with the values ahead:

Kd [1] [nM] | Kd [2] [nM] | Binder
15 | 520 | Nb C16 (HA-tagged, in periplasmic extract) (VHH, source: E. coli WK6 (pHEN4), crude periplasmic extract) VHH: QVQLQESGGGLVQAGGSLKVSCAVSGSTVSSSTMAWWRQTPGNQRELVALVDSGGKSNYVDSVKGRFTISTDNAKNTMYLQMNSLKPEDTAVYYCRILSVKGIWYWGQGTQVTVSS
– | 23 | Nb A1 (HA-tagged, in periplasmic extract) (VHH, source: E. coli WK6 (pHEN4), crude periplasmic extract) VHH: QVQLQESGGGLVQPGGSLRLSCAASGFTLDYYAIGWFRQAPGKEREGVSCISSSDGSTYYADSVKGRFTISRDNAKNTVYLQMSSLKPEDTAVYYCGISGSCLLEDYGMDYWGKGTQVTVSS
3.1 | 27 | Nb C7 (HA-tagged, in periplasmic extract) (VHH, source: E. coli WK6 (pHEN4), crude periplasmic extract) VHH: QVQLQESGGGSVQAGESLTLSCTASGSSLSHKSVGWWRQTPGNQRELVALVASGNNTNYVDSVKGRFTVSRDNAKNTMYLQMNSLKPEDTAVYYCRILSVNGIWYWGQGTQVTVSS
12 | 291 | Nb D1 (HA-tagged, in periplasmic extract) (VHH, source: E. coli WK6 (pHEN4), crude periplasmic extract) VHH: QVQLQESGGGLVQAGGSLRLSCAASGITVSINAMAWYRQPPGKQRELVALIIGGSTRYADSVKGRFTISRDNAKNTVYLQMNSLKPEDTAVYACNTRAYWGQGTQVTVSS
123 | 6 | Nb B1 (HA-tagged, in periplasmic extract) (VHH, source: E. coli WK6 (pHEN4), crude periplasmic extract) VHH: QVQLQESGGGLVHPGGSLRLSCAASGFSLDNYAIGWFRQAPGKEREGVSCISSGSEGRRYYADFVKGRFTISRDNAKNTAFLQMNSLKPEDTADYYCATVGFCSSQYGMEFVGDYWGQGTQVTVSS
5 | 21 | Nb G6 (HA-tagged, in periplasmic extract) (VHH, source: E. coli WK6 (pHEN4), crude periplasmic extract) VHH: QVQLQESGGGLVQPGESLRLSCVASGSFFRTYIVSWYRQAPGKRREAVAVMSNSGNTNYADSVKGRFTISRDNAVNTVYLQMNSLKPEDTAVYYCNLLKVTVPPANYWGQGTQVTVSS
5.6 | 94 | Nb E2 (HA-tagged, in periplasmic extract) (VHH, source: E. coli WK6 (pHEN4), crude periplasmic extract) VHH: QVQLQESGGGLVQAGGSLRLSCATSGSIFSIISMGWYRQAPGKQRELVALVFRGGSTVYADSVKGRFTISGDIAKNTVYLQMDSLKPEDTAVYYCNVKSIGTAQYWGQGTQITVSS
14 | 54 | Nb E5 (HA-tagged, in periplasmic extract) (VHH, source: E. coli WK6 (pHEN4), crude periplasmic extract) VHH: QVQLQESGGGLVQPGGSLRLSCATSGSIFSIISMGWYRQAPGKQRELVALVFRGGSTVYADSVKGRFTISGDIAKSTVYLQMDSLKPEDTAVYYCNAKPIGTAQYWGQGTQVTVSS
0.14 | 32 | Nb C3 (HA-tagged, in periplasmic extract) (VHH, source: E. coli WK6 (pHEN4), crude periplasmic extract) VHH: QVQLQESGGGLVQTGGSLRLSCAASGSTVSSSMMAWWRQTPGNQRELVALVASGNNTNYVDSVKGRFTVSRDNAKNTMYLQMNSLKPEDTAVYYCRILSVNGIWYWGQGTQVTVSS
33 | 162 | Nb C13 (HA-tagged, in periplasmic extract) (VHH, source: E. coli WK6 (pHEN4), crude periplasmic extract) VHH: QVQLQESGGGLVQTGGSLRLSCAASGSTVSSSTMAWYRQTPGNQRDLVALVGSGGNINYVDSVKGRFTVSIDNAKNTMYLQMNSLKPEDTAVYYCRILSVNGIWYWGQGTQVTVSS
1.8 | 71 | Nb C14 (HA-tagged, in periplasmic extract) (VHH, source: E. coli WK6 (pHEN4), crude periplasmic extract) VHH: QVQLQESGGGLVQTGGSLRLSCAASGSTVGSSTMAWWRQTPGNQRELVALVGLGGNTNYVDSVKGRFTVSIDNAENTMYLQMNSLKFEDTAVYYCRILSVNGIWYWGQGTQVTVSS
67 | 322 | Nb I1 (HA-tagged, in periplasmic extract) (VHH, source: E. coli WK6 (pHEN4), crude periplasmic extract) VHH: QVQLQESGGGLVQAGGSLRLSCAASGRTFRRYDMGWFRQAPGKEREFVAASTWSADDTYYAGSVKGRFTISRDNAKNTVYLQMNSLKPEDTAVYYCAAGETRKYGFRTTEGYYDSWGQGTQVTVSS
4.4 | 50 | Nb G1 (HA-tagged, in periplasmic extract) (VHH, source: E. coli WK6 (pHEN4), crude periplasmic extract) VHH: QVQLQESGGGLVQPGGSLRLSCAASGSISSFNFMGWYRQAPGKQRELVALSTNSGVTNVAGSVKGRFTISRDNAKTTVYLQMNSLKPEDTAVYYCRVGAMGNLYWGQGTQVTVSS
5 | 907 | Nb G3 (HA-tagged, in periplasmic extract) (VHH, source: E. coli WK6 (pHEN4), crude periplasmic extract) VHH: QVQLQESGGGLVQTGGSLRLSCAASGSISSFNFMGWYRQAPGKQRELVALSTNSGVTNVAGSVKGRFTISRDNAKTTVYLQMNSLKPEDTAVYYCRVGAMGNLYWGQGTQVTVSS
6.2 | 74 | Nb G4 (HA-tagged, in periplasmic extract) (VHH, source: E. coli WK6 (pHEN4), crude periplasmic extract) VHH: QVQLQESGGGLVQAGGSLRLSCAASGSISSFNFMGWYRQAPGKQRELVALSTNSGVTNVAGSVKGRFTISRDNAKTTVYLQMNSLKPEDTAVYYCRVGAMGNLYWGQGTQVTVSS
